Where two headings read alike, the source gives them in different places.

Data set [1] has as its target T1, UHRF1 SRA domain (NP95) (mouse, UniProt Q8VDF2 419-628).
T1 sequence: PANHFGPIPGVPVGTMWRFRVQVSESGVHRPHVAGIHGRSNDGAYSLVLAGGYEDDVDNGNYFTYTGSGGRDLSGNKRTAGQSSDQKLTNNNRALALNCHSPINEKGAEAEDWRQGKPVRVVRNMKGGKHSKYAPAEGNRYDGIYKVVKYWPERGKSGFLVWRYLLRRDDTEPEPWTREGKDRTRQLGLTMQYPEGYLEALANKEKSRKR
Briefly: X-ray crystallography.

Data set [2] concerns the target T1, UHRF1 SRA domain (NP95). Briefly: X-ray crystallography. This is another data set of the same source.

B1: unmethylated CpG 12-bp duplex (dsDNA)
DNA 1: AACTGCGCAGTT
DNA 2: AACTGCGCAGTT
For B1, the binding result with UHRF1 SRA domain (NP95) [1] was “binds”.

B2: hemimethylated CpG 12-bp duplex (dsDNA)
DNA 1: TCCATGCGCTGAC
DNA 2: GTCAGCGCATGG
modifications: 5-methylcytosine at position 6 of strand 2 (…); strand 1 unmethylated
Take B2: the binding result with UHRF1 SRA domain (NP95) [2] is given as “binds”.

The values are drawn from article PMC2602803.
